The assay concerns the target catalytic α subunit of the cAMP-dependent protein kinase A, Cushing's syndrome mutant L205R (PKA-C^L205R) (human). Briefly: ITC.

This is an account of results in paper PMC6713507.

In general, Kd refers to the concentration at which binding is half-saturated. A higher Kd goes with lower affinity. With “VPS36-derived peptide (vacuolar protein-sorting–associated protein 36, residues 115 to 130)”, the Kd worked out at 3.5 µM. This counts as single-digit micromolar.
